Measurements as given in US20050191342A1.

Target: CD20 on Daudi target cells (human) (UniProt P11836)
Test: cell-based or functional assay

Chain of UniProt P11836 (P11836 whole entry): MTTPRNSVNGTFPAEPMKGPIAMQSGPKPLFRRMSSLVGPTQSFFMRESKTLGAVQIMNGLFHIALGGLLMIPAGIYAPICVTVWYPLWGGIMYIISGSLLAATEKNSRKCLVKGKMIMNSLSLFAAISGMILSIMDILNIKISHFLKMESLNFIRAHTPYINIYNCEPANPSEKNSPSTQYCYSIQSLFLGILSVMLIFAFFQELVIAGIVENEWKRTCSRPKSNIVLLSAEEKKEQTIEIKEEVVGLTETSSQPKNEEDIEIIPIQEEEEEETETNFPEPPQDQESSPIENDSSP

- ADCC, Cr release from Daudi target cells: 10 to 15%
Substance: Rituxan™ (antibody)
